Assay results as given in the supplement of paper PMC10567573.

B1: STX11 (parent)
chain: FQRAMHDYNQAEMKQRDNCKIRIQ

Variants of: B1
Assay: protein stability index of a GFP-peptide fusion (GPS, HEK-293T) (PSI 1-6); higher = more stable
Settings: c terminus: a fixed tail appended
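Also: lentivirally expressed fusions sorted by FACS into six bins by GFP to DsRed ratio, PSI derived from sequencing read proportions per bin multiplied by bin number.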

Variant	protein stability index
FQRAMHDYMQAEMKQRDNCKIRIQ [N9M]	1.7
FQRAMHDYEQAEMKQRDNCKIRIQ [N9E]	2.94
FQRAMHDYWQAEMKQRDNCKIRIQ [N9W]	1.74
QQRAMHDYNQAEMKQRDNCKIRIQ [F1Q]	4.13
AQRAMHDYNQAEMKQRDNCKIRIQ [F1A]	3.87
DQRAMHDYNQAEMKQRDNCKIRIQ [F1D]	4.15
FQVAMHDYNQAEMKQRDNCKIRIQ [R3V]	2.86
FQAAMHDYNQAEMKQRDNCKIRIQ [R3A]	2.94
FQTAMHDYNQAEMKQRDNCKIRIQ [R3T]	2.93
FQPAMHDYNQAEMKQRDNCKIRIQ [R3P]	2.99
FQMAMHDYNQAEMKQRDNCKIRIQ [R3M]	1.62
FQRAMHDYNQAEDKQRDNCKIRIQ [M13D]	3.71
FQRAMHDYNQAECKQRDNCKIRIQ [M13C]	2.49
FQRAMHDYNQAEMKQRDNCPIRIQ [K20P]	2.37
FQRAMHDYNQAEMKQRDNCDIRIQ [K20D]	3.11
FQRAMHDYNQAEMKQRDNCGIRIQ [K20G]	2.35
FQRAMHDYNQAEMKQRDNCHIRIQ [K20H]	3.21
FQRAMHDYNQAEMKQRDNCEIRIQ [K20E]	2.74
FQRAMHDYNQAEMKQRDNCNIRIQ [K20N]	2.83
FQRAMHDYNQAEMKQRDNCQIRIQ [K20Q]	2.75
FQRAMHDYNQAEMKQRDNCKIDIQ [R22D]	3.13
FQRAMHDYNQAEMKQRDNCKIFIQ [R22F]	2.04
FQRAMHDYNQAEMKQRDNCKIQIQ [R22Q]	2.9
FQRAMHDYNQAEMKQRDNCKILIQ [R22L]	2.53

Variant	protein stability index
FQRAMHDYNQAEMKQRDNCKICIQ [R22C]	2.37
FQRAAHDYNQAEMKQRDNCKIRIQ [M5A]	3.93
FQRARHDYNQAEMKQRDNCKIRIQ [M5R]	2.78
FQRAMHDTNQAEMKQRDNCKIRIQ [Y8T]	3.62
FQRAMHDSNQAEMKQRDNCKIRIQ [Y8S]	3.45
FQRAMHDWNQAEMKQRDNCKIRIQ [Y8W]	2.08
FQRAMHDMNQAEMKQRDNCKIRIQ [Y8M]	3.15
FQRAMHDYNQAEMKQRDNCKIRKQ [I23K]	2.93
FQRAMHDYNQAEMKQRDNCKIRGQ [I23G]	3.25
FQRAMHDYNQAEMKQRDNCKIRDQ [I23D]	3.38
FQRAMHDYNQAEMKQRDNCKIRTQ [I23T]	3.19
FQRAMHDYNQAEMKQRDNCKIRVQ [I23V]	2.85
FQRAMHDYNGAEMKQRDNCKIRIQ [Q10G]	2.45
FQRAMHDYNLAEMKQRDNCKIRIQ [Q10L]	2.36
FQRAMHDYNEAEMKQRDNCKIRIQ [Q10E]	2.74
FQRAMHDYNFAEMKQRDNCKIRIQ [Q10F]	1.81
FQRAMHDYNNAEMKQRDNCKIRIQ [Q10N]	2.63
FFRAMHDYNQAEMKQRDNCKIRIQ [Q2F]	2.84
FMRAMHDYNQAEMKQRDNCKIRIQ [Q2M]	2.69
FARAMHDYNQAEMKQRDNCKIRIQ [Q2A]	2
FERAMHDYNQAEMKQRDNCKIRIQ [Q2E]	4
FKRAMHDYNQAEMKQRDNCKIRIQ [Q2K]	3.14
FQRAMHDYNQACMKQRDNCKIRIQ [E12C]	2.11
FQRAMHDYNQAKMKQRDNCKIRIQ [E12K]	2.31

Variant	protein stability index
FQRAMHDYNQAYMKQRDNCKIRIQ [E12Y]	1.67
FQRAMHDYNQAHMKQRDNCKIRIQ [E12H]	2.14
FQRAMHDYNQATMKQRDNCKIRIQ [E12T]	2.62
FQRAMHDYNQAEMKYRDNCKIRIQ [Q15Y]	3.08
FQRAMHDYNQAEMKERDNCKIRIQ [Q15E]	3.2
FQRAMHDYNQAEMKQRDNCKIRII [Q24I]	2.36
FQRAMHDYNQAEMKQRDNCKIRIK [Q24K]	2.87
FQRAMHDYNQAEMKQRDNCKIRID [Q24D]	2.81
FQRMMHDYNQAEMKQRDNCKIRIQ [A4M]	2.22
FQRKMHDYNQAEMKQRDNCKIRIQ [A4K]	2.54
FQRAMHKYNQAEMKQRDNCKIRIQ [D7K]	2.56
FQRAMHPYNQAEMKQRDNCKIRIQ [D7P]	2.23
FQRAMHCYNQAEMKQRDNCKIRIQ [D7C]	1.71
FQRAMHFYNQAEMKQRDNCKIRIQ [D7F]	1.17
FQRAMHNYNQAEMKQRDNCKIRIQ [D7N]	2.66
FQRAMHEYNQAEMKQRDNCKIRIQ [D7E]	3.09
FQRAMFDYNQAEMKQRDNCKIRIQ [H6F]	2.32
FQRAMLDYNQAEMKQRDNCKIRIQ [H6L]	2.91
FQRAMEDYNQAEMKQRDNCKIRIQ [H6E]	4
FQRAMHDYNQAEMKQRDNSKIRIQ [C19S]	3.27
FQRAMHDYNQAEMKQRDNMKIRIQ [C19M]	2.85
FQRAMHDYNQAEMKQRDNLKIRIQ [C19L]	2.54
FQRAMHDYNQAEMKQRDNKKIRIQ [C19K]	3.38
FQRAMHDYNQAEMKQRDNRKIRIQ [C19R]	2.59

Variant	protein stability index
FQRAMHDYNQAEMKQRDNYKIRIQ [C19Y]	2.61
FQRAMHDYNQAEMKQRDICKIRIQ [N18I]	2.41
FQRAMHDYNQAEMKQRDMCKIRIQ [N18M]	2.59
FQRAMHDYNQAEMKQRDDCKIRIQ [N18D]	2.88
FQRAMHDYNQAEMKQRDQCKIRIQ [N18Q]	2.5
FQRAMHDYNQAEMKQRDKCKIRIQ [N18K]	2.56
FQRAMHDYNQAEMKQRDACKIRIQ [N18A]	2.53
FQRAMHDYNQAEMKQNDNCKIRIQ [R16N]	2.7
FQRAMHDYNQAEMKQPDNCKIRIQ [R16P]	2.87
FQRAMHDYNQAEMKQYDNCKIRIQ [R16Y]	2.65
FQRAMHDYNQAEMKQRGNCKIRIQ [D17G]	2.36
FQRAMHDYNQAEMKQRANCKIRIQ [D17A]	2.28
FQRAMHDYNQAEMKQRVNCKIRIQ [D17V]	2.73
FQRAMHDYNQVEMKQRDNCKIRIQ [A11V]	2.79
FQRAMHDYNQFEMKQRDNCKIRIQ [A11F]	2.46
FQRAMHDYNQHEMKQRDNCKIRIQ [A11H]	2.58
FQRAMHDYNQAEMKQRDNCKKRIQ [I21K]	2.68
FQRAMHDYNQAEMKQRDNCKFRIQ [I21F]	2.34
FQRAMHDYNQAEMKQRDNCKWRIQ [I21W]	3.17
FQRAMHDYNQAEMKQRDNCKCRIQ [I21C]	2.36
FQRAMHDYNQAEMKQRDNCKERIQ [I21E]	2.92
FQRAMHDYNQAEMKQRDNCKGRIQ [I21G]	3.08
